Data as given in PMC10786891, “Massively parallel profiling of RNA-targeting CRISPR-Cas13d”.
Positions count from the first letter of the chain named. In names and notes the source's numbering stands.

T1: EsCas13d, nuclease-dead (Eubacterium siraeum, UniProt B0MS50, R295A;H300A;R849A;H854A)
T1 sequence: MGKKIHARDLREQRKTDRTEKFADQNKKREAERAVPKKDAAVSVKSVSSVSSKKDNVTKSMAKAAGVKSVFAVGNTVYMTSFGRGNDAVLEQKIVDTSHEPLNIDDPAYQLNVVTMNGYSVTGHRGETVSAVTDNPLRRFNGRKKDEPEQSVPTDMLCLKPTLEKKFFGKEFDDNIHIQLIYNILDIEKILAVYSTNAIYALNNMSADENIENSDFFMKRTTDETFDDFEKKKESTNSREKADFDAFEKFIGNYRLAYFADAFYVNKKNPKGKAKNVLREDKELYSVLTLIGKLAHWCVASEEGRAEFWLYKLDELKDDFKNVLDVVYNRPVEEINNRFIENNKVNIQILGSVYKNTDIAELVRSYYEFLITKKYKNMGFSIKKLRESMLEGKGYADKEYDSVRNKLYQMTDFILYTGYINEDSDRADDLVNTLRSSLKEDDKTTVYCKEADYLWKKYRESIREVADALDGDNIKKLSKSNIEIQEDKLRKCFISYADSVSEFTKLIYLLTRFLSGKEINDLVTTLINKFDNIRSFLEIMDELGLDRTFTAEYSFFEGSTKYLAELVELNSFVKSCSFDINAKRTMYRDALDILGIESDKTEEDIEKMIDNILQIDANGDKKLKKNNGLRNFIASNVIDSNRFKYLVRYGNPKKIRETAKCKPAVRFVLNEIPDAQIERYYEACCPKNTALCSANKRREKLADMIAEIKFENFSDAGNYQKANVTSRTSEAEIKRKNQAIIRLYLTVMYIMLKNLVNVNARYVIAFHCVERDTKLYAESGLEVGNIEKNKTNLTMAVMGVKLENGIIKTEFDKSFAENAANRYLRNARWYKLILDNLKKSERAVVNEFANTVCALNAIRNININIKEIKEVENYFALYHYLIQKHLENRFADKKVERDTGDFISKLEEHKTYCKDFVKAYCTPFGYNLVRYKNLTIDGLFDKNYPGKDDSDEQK

B1: target 1 C4G,U19C (mixed)
RNA 1: CACCCGUGCAAAAAUGCAGGGGUCUAAAACUGAGCGGAUAACCUCUCUAUGG
RNA 2: GGGAAUGGAUCCACAUCUACGAAUUCGUACCACAGAGAGGUUAUCCGGUCACCGAGAUCGGAAGAGCACACGU
B2: target 1 insU 3' of 17 (mixed)
RNA 1: B1 RNA 1
RNA 2: GGGAAUGGAUCCACAUCUACGAAUUCGUACCAUAGUAGAGGUUAUCCGCUCACCGAGAUCGGAAGAGCACACGU
B3: target 1 U11A,G13A (mixed)
RNA 1: B1 RNA 1
RNA 2: B1 RNA 2 with C33U, G39A, U41A, G48C
B4: target 1 C2G,C7A (mixed)
RNA 1: B1 RNA 1
RNA 2: B1 RNA 2 with C33U, C45A, G48C, C50G
B5: target 1 insG 3' of 18,insC 3' of 18 (mixed)
RNA 1: B1 RNA 1
RNA 2: GGGAAUGGAUCCACAUCUACGAAUUCGUACCAUAGCGAGAGGUUAUCCGCUCACCGAGAUCGGAAGAGCACACGU
B6: target 1 del3,del16 (mixed)
RNA 1: B1 RNA 1
RNA 2: GGGAAUGGAUCCACAUCUACGAAUUCGUACCAUAGGAGGUUAUCCGCCACCGAGAUCGGAAGAGCACACGU
B7: target 1 U11A,G12U (mixed)
RNA 1: B1 RNA 1
RNA 2: B1 RNA 2 with C33U, G40U, U41A, G48C
B8: target 1 U3G,G15C (mixed)
RNA 1: B1 RNA 1
RNA 2: B1 RNA 2 with C33U, G37C, G48C, U49G
B9: target 1 C7G,G17A (mixed)
RNA 1: B1 RNA 1
RNA 2: B1 RNA 2 with C33U, G35A, C45G, G48C
B10: target 1 insA 3' of 21,insU 3' of 7 (mixed)
RNA 1: B1 RNA 1
RNA 2: GGGAAUGGAUCCACAUCUACGAAUUCGUACCAAUAGAGAGGUUAUCUCGCUCACCGAGAUCGGAAGAGCACACGU
B11: target 1 insU 3' of 22,insA 3' of 6 (mixed)
RNA 1: B1 RNA 1
RNA 2: B10 RNA 2 with C31U, A32C, U47C, C48A
B12: target 1 C21A,C22A (mixed)
RNA 1: B1 RNA 1
RNA 2: B1 RNA 2 with C30A, C31A, C33U, G48C
B13: target 1 insA 3' of 15,insC 3' of 14 (mixed)
RNA 1: B1 RNA 1
RNA 2: B5 RNA 2 with C36A, G39A, A40C
B14: target 1 insC 3' of 15,insC 3' of 14 (mixed)
RNA 1: B1 RNA 1
RNA 2: B5 RNA 2 with C36A, A38C, G39A, A40C
B15: target 1 insA 3' of 22,insA 3' of 17 (mixed)
RNA 1: B1 RNA 1
RNA 2: B5 RNA 2 with C31A, A32C, U33A, A34U, G35A, C36G, G37A
B16: target 1 A1G,C7G (mixed)
RNA 1: B1 RNA 1
RNA 2: B1 RNA 2 with C33U, C45G, G48C, A51G
B17: target 1 insG 3' of 19 (mixed)
RNA 1: B1 RNA 1
RNA 2: B2 RNA 2 with A34G, G35A, U36G
B18: target 1 insU 3' of 13,insA 3' of 3 (mixed)
RNA 1: B1 RNA 1
RNA 2: GGGAAUGGAUCCACAUCUACGAAUUCGUACCAUAGAGAGUGUUAUCCGCUACACCGAGAUCGGAAGAGCACACGU
B19: target 1 A1C,C7G (mixed)
RNA 1: B1 RNA 1
RNA 2: B1 RNA 2 with C33U, C45G, G48C, A51C
B20: target 1 C7G (mixed)
RNA 1: B1 RNA 1
RNA 2: B1 RNA 2 with C33U, C45G, G48C
B21: target 1 C2A,C4U (mixed)
RNA 1: B1 RNA 1
RNA 2: B1 RNA 2 with C33U, G48U, C50A
B22: target 1 insA 3' of 11,insG 3' of 3 (mixed)
RNA 1: B1 RNA 1
RNA 2: B18 RNA 2 with U40G, G41U, U42A, A51G
B23: target 1 A9G,G15A (mixed)
RNA 1: B1 RNA 1
RNA 2: B1 RNA 2 with C33U, G37A, A43G, G48C
B24: target 1 insU 3' of 5,insG 3' of 3 (mixed)
RNA 1: B1 RNA 1
RNA 2: B18 RNA 2 with U40G, G41U, U43A, A44U, U45C, C47G, G48U, A51G
B25: target 1 C7A,A20U (mixed)
RNA 1: B1 RNA 1
RNA 2: B1 RNA 2 with A32U, C33U, C45A, G48C
B26: target 1 insA 3' of 22,insU 3' of 9 (mixed)
RNA 1: B1 RNA 1
RNA 2: B10 RNA 2 with C31A, A32C, C46U, U47C
B27: target 1 U3A,G12C (mixed)
RNA 1: B1 RNA 1
RNA 2: B1 RNA 2 with C33U, G40C, G48C, U49A
B28: target 1 G12U,A16C (mixed)
RNA 1: B1 RNA 1
RNA 2: B1 RNA 2 with C33U, A36C, G40U, G48C
B29: target 1 insA 3' of 19,insA 3' of 13 (mixed)
RNA 1: B1 RNA 1
RNA 2: B5 RNA 2 with G35A, C36G, G37A, A38G, G39A, A40G, G41A
B30: target 1 insU 3' of 15,insG 3' of 3 (mixed)
RNA 1: B1 RNA 1
RNA 2: B18 RNA 2 with A38U, G39A, U40G, A51G
B31: target 1 insU 3' of 6 (mixed)
RNA 1: B1 RNA 1
RNA 2: B2 RNA 2 with U36A, A37G, G38A, A39G, G41U, U43A, A44U, U45C, C47U
B32: target 1 insC 3' of 18,insA 3' of 17 (mixed)
RNA 1: B1 RNA 1
RNA 2: B5 RNA 2 with G35C, C36G, G37A
B33: target 1 insG 3' of 4,insA 3' of 4 (mixed)
RNA 1: B1 RNA 1
RNA 2: B5 RNA 2 with C36A, A40G, G41U, G42U, U43A, A45C, U46C, C47G, C50A

What follows are binders tested against T1, EsCas13d, nuclease-dead (assay: crRNA (strand 1, pre-loaded); Mg2+; 40 mM Tris-HCl pH 7.5, 150 mM NaCl, 6 mM MgCl2, 1 mM DTT, 0.1% Tween-20, 0.2 mg/ml BSA; 25 C; 10 min per concentration, then washed). Settings: tags: His6-TwinStrep-SUMO cleaved; N-terminal SNAP kept (SNAP-Surface 488); label: 3' end held by stalled T7 RNA polymerase.

Question: For B1, which Kd is on record?
Answer: The Kd was 28 ± 6 nM.

Question: How did the Kd turn out when B2 was run?
Answer: Its Kd is 14.1 ± 1.2 nM.

Question: How did the Kd turn out when B3 was run?
Answer: Its Kd is 38.5 ± 2.8 nM.

Question: How did the Kd turn out when B4 was run?
Answer: Its Kd is 6.22 ± 0.24 nM.

Question: B5 was tested. Which Kd did it give?
Answer: Its Kd is 30.8 ± 1.3 nM.

Question: B6 was tested. Which Kd did it give?
Answer: Its Kd is 85 ± 31 nM.

Question: For B7, which Kd is on record?
Answer: Its Kd is 5.1 ± 0.35 nM.

Question: Which Kd does the source give for B8 here?
Answer: Its Kd is 34 ± 4 nM.

Question: With B9 as the binder, how does the Kd read?
Answer: The Kd was 49 ± 5 nM.

Question: B10 was tested. Which Kd did it give?
Answer: The Kd was 40.7 ± 3.1 nM.

Question: Which Kd does the source give for B11 here?
Answer: Its Kd is 55 ± 16 nM.

Question: With B12 as the binder, how does the Kd read?
Answer: The Kd was 36 ± 5 nM.

Question: B13 was tested. Which Kd did it give?
Answer: Its Kd is 14.8 ± 0.7 nM.

Question: How did the Kd turn out when B14 was run?
Answer: The Kd was 12 ± 1 nM.

Question: With B15 as the binder, how does the Kd read?
Answer: The Kd was 27.5 ± 2 nM.

Question: For B16, which Kd is on record?
Answer: The Kd was 9.2 ± 0.9 nM.

Question: With B17 as the binder, how does the Kd read?
Answer: The Kd was 50 ± 4 nM.

Question: B18 was tested. Which Kd did it give?
Answer: The Kd was 24 ± 3.1 nM.

Question: With B19 as the binder, how does the Kd read?
Answer: Its Kd is 8.8 ± 0.7 nM.

Question: B20 was tested. Which Kd did it give?
Answer: The Kd was 8.8 ± 0.5 nM.

Question: Which Kd does the source give for B21 here?
Answer: The Kd was 33.5 ± 3.5 nM.

Question: B22 was tested. Which Kd did it give?
Answer: The Kd was 12.1 ± 0.6 nM.

Question: Which Kd does the source give for B23 here?
Answer: The Kd was 11.6 ± 0.7 nM.

Question: How did the Kd turn out when B24 was run?
Answer: Its Kd is 12.9 ± 0.9 nM.

Question: With B25 as the binder, how does the Kd read?
Answer: The Kd was 45 ± 5 nM.

Question: How did the Kd turn out when B26 was run?
Answer: The Kd was 21.6 ± 1.5 nM.

Question: B27 was tested. Which Kd did it give?
Answer: The Kd was 8.5 ± 0.4 nM.

Question: How did the Kd turn out when B28 was run?
Answer: Its Kd is 76 ± 14 nM.

Question: With B29 as the binder, how does the Kd read?
Answer: The Kd was 17.9 ± 2 nM.

Question: Which Kd does the source give for B30 here?
Answer: Its Kd is 6.99 ± 0.32 nM.

Question: With B31 as the binder, how does the Kd read?
Answer: The Kd was 12.8 ± 0.7 nM.

Question: With B32 as the binder, how does the Kd read?
Answer: The Kd was 50 ± 6 nM.

Question: How did the Kd turn out when B33 was run?
Answer: The Kd was 4.63 ± 0.25 nM.
